According to article PMC10011572 (Nature Communications, 2023):

Legend:
[1] = target: Zanidatamab (human); assay: AUC; sedimentation velocity, HER2 ECD and antibody equimolar (1x), 1 mg/mL total protein in DPBS, 20 °C, c(s) model
[2] = target: zanidatamab (human); assay: SPR; zani captured on immobilised goat anti-human Fc (CM5, Biacore T200), HER2 ECD 3.75-60 nM flowed; single-cycle, 1:1 Langmuir fit; apparent; capture/MW 0.62396698 RU/kDa
[3] = target: zanidatamab (human); assay: SPR; zani captured on immobilised goat anti-human Fc (CM5, Biacore T200), HER2 ECD 3.75-60 nM flowed; single-cycle, 1:1 Langmuir fit; apparent; capture/MW 2.37652122 RU/kDa
[4] = target: zanidatamab (human); assay: SPR; zani captured on immobilised goat anti-human Fc (CM5, Biacore T200), HER2 ECD 3.75-60 nM flowed; single-cycle, 1:1 Langmuir fit; apparent; capture/MW 0.273135738 RU/kDa
[5] = target: zanidatamab (human); assay: SPR; zani captured on immobilised goat anti-human Fc (CM5, Biacore T200), HER2 ECD 3.75-60 nM flowed; single-cycle, 1:1 Langmuir fit; apparent; capture/MW 0.484595665 RU/kDa
[6] = target: zanidatamab (human); assay: SPR; zani captured on immobilised goat anti-human Fc (CM5, Biacore T200), HER2 ECD 3.75-60 nM flowed; single-cycle, 1:1 Langmuir fit; apparent; capture/MW 0.793775709 RU/kDa
[7] = target: zanidatamab (human); assay: SPR; zani captured on immobilised goat anti-human Fc (CM5, Biacore T200), HER2 ECD 3.75-60 nM flowed; single-cycle, 1:1 Langmuir fit; apparent; capture/MW 0.856252506 RU/kDa
[8] = target: zanidatamab (human); assay: SPR; zani captured on immobilised goat anti-human Fc (CM5, Biacore T200), HER2 ECD 3.75-60 nM flowed; single-cycle, 1:1 Langmuir fit; apparent; capture/MW 1.217496547 RU/kDa
[9] = target: zanidatamab (human); assay: SPR; zani captured on immobilised goat anti-human Fc (CM5, Biacore T200), HER2 ECD 3.75-60 nM flowed; single-cycle, 1:1 Langmuir fit; apparent; capture/MW 1.306405834 RU/kDa
[10] = target: zanidatamab (human); assay: SPR; zani captured on immobilised goat anti-human Fc (CM5, Biacore T200), HER2 ECD 3.75-60 nM flowed; single-cycle, 1:1 Langmuir fit; apparent; capture/MW 2.080156929 RU/kDa
[11] = target: zanidatamab precursor (human); assay: SPR; zani precursor captured on immobilised goat anti-human Fc (CM5, Biacore T200), HER2 ECD 3.75-60 nM flowed; single-cycle, 1:1 Langmuir fit; apparent; capture/MW 2.00002417 RU/kDa
[12] = target: zanidatamab precursor (human); assay: SPR; zani precursor captured on immobilised goat anti-human Fc (CM5, Biacore T200), HER2 ECD 3.75-60 nM flowed; single-cycle, 1:1 Langmuir fit; apparent; capture/MW 2.11927331 RU/kDa
[13] = target: zanidatamab precursor (human); assay: SPR; zani precursor captured on immobilised goat anti-human Fc (CM5, Biacore T200), HER2 ECD 3.75-60 nM flowed; single-cycle, 1:1 Langmuir fit; apparent; capture/MW 0.083234299 RU/kDa
[14] = target: zanidatamab precursor (human); assay: SPR; zani precursor captured on immobilised goat anti-human Fc (CM5, Biacore T200), HER2 ECD 3.75-60 nM flowed; single-cycle, 1:1 Langmuir fit; apparent; capture/MW 0.164867939 RU/kDa
[15] = target: zanidatamab precursor (human); assay: SPR; zani precursor captured on immobilised goat anti-human Fc (CM5, Biacore T200), HER2 ECD 3.75-60 nM flowed; single-cycle, 1:1 Langmuir fit; apparent; capture/MW 0.312928952 RU/kDa
[16] = target: zanidatamab precursor (human); assay: SPR; zani precursor captured on immobilised goat anti-human Fc (CM5, Biacore T200), HER2 ECD 3.75-60 nM flowed; single-cycle, 1:1 Langmuir fit; apparent; capture/MW 0.356947091 RU/kDa
[17] = target: zanidatamab precursor (human); assay: SPR; zani precursor captured on immobilised goat anti-human Fc (CM5, Biacore T200), HER2 ECD 3.75-60 nM flowed; single-cycle, 1:1 Langmuir fit; apparent; capture/MW 0.365750719 RU/kDa
[18] = target: zanidatamab precursor (human); assay: SPR; zani precursor captured on immobilised goat anti-human Fc (CM5, Biacore T200), HER2 ECD 3.75-60 nM flowed; single-cycle, 1:1 Langmuir fit; apparent; capture/MW 0.423374464 RU/kDa
[19] = target: zanidatamab precursor (human); assay: SPR; zani precursor captured on immobilised goat anti-human Fc (CM5, Biacore T200), HER2 ECD 3.75-60 nM flowed; single-cycle, 1:1 Langmuir fit; apparent; capture/MW 0.555428881 RU/kDa
[20] = target: zanidatamab precursor (human); assay: SPR; zani precursor captured on immobilised goat anti-human Fc (CM5, Biacore T200), HER2 ECD 3.75-60 nM flowed; single-cycle, 1:1 Langmuir fit; apparent; capture/MW 0.571435477 RU/kDa
[21] = target: zanidatamab precursor (human); assay: SPR; zani precursor captured on immobilised goat anti-human Fc (CM5, Biacore T200), HER2 ECD 3.75-60 nM flowed; single-cycle, 1:1 Langmuir fit; apparent; capture/MW 0.703489894 RU/kDa
[22] = target: zanidatamab precursor (human); assay: SPR; zani precursor captured on immobilised goat anti-human Fc (CM5, Biacore T200), HER2 ECD 3.75-60 nM flowed; single-cycle, 1:1 Langmuir fit; apparent; capture/MW 0.790725842 RU/kDa
[23] = target: zanidatamab precursor (human); assay: SPR; zani precursor captured on immobilised goat anti-human Fc (CM5, Biacore T200), HER2 ECD 3.75-60 nM flowed; single-cycle, 1:1 Langmuir fit; apparent; capture/MW 1.008415548 RU/kDa
[24] = target: zanidatamab precursor (human); assay: SPR; zani precursor captured on immobilised goat anti-human Fc (CM5, Biacore T200), HER2 ECD 3.75-60 nM flowed; single-cycle, 1:1 Langmuir fit; apparent; capture/MW 1.154875901 RU/kDa
[25] = target: zanidatamab precursor (human); assay: SPR; zani precursor captured on immobilised goat anti-human Fc (CM5, Biacore T200), HER2 ECD 3.75-60 nM flowed; single-cycle, 1:1 Langmuir fit; apparent; capture/MW 1.267722403 RU/kDa
[26] = target: zanidatamab precursor (human); assay: SPR; zani precursor captured on immobilised goat anti-human Fc (CM5, Biacore T200), HER2 ECD 3.75-60 nM flowed; single-cycle, 1:1 Langmuir fit; apparent; capture/MW 1.970411967 RU/kDa
[27] = target: zanidatamab precursor (human); assay: SPR; zani precursor captured on immobilised goat anti-human Fc (CM5, Biacore T200), HER2 ECD 3.75-60 nM flowed; single-cycle, 1:1 Langmuir fit; apparent; capture/MW 2.483423369 RU/kDa
[28] = target: zanidatamab precursor (human); assay: SPR; zani precursor captured on immobilised goat anti-human Fc (CM5, Biacore T200), HER2 ECD 3.75-60 nM flowed; single-cycle, 1:1 Langmuir fit; apparent; capture/MW 2.899594865 RU/kDa
[29] = target: zanidatamab precursor (human); assay: SPR; zani precursor captured on immobilised goat anti-human Fc (CM5, Biacore T200), HER2 ECD 3.75-60 nM flowed; single-cycle, 1:1 Langmuir fit; apparent; capture/MW 3.104479294 RU/kDa
[30] = target: zanidatamab precursor (human); assay: SPR; zani precursor captured on immobilised goat anti-human Fc (CM5, Biacore T200), HER2 ECD 3.75-60 nM flowed; single-cycle, 1:1 Langmuir fit; apparent; capture/MW 3.817573146 RU/kDa
[31] = target: zanidatamab precursor (human); assay: SPR; zani precursor captured on immobilised goat anti-human Fc (CM5, Biacore T200), HER2 ECD 3.75-60 nM flowed; single-cycle, 1:1 Langmuir fit; apparent; capture/MW 4.096087916 RU/kDa
[32] = target: zanidatamab precursor (human); assay: SPR; zani precursor captured on immobilised goat anti-human Fc (CM5, Biacore T200), HER2 ECD 3.75-60 nM flowed; single-cycle, 1:1 Langmuir fit; apparent; capture/MW 4.555477221 RU/kDa
[33] = target: zanidatamab precursor (human); assay: SPR; zani precursor captured on immobilised goat anti-human Fc (CM5, Biacore T200), HER2 ECD 3.75-60 nM flowed; single-cycle, 1:1 Langmuir fit; apparent; capture/MW 4.911623982 RU/kDa
[34] = target: Zanidatamab (human); assay: SPR; Biacore T200; goat anti-human Fc polyclonal Ab amine-coupled to about 2000 RU on a CM5 chip captures the antibody; increasing concentrations of HER2 ECD injected; single-cycle kinetics, 1:1 binding model; KD of zanidatamab called apparent
[35] = target: T1, Recombinant human HER2 ECD (Homo sapiens, UniProt P04626); assay: as above; conditions: both partners purified
T1 construct: human epidermal growth factor receptor 2 (HER2), extracellular domain, recombinant; printed mass 72 kDa; The supplier is named for the SPR only; source: bought: Acro Inc

Q: “Recombinant human HER2 ECD (from UniProt P04626 23-652) (domain or fragment)” was tested. Which percent of the total peak area in multimeric complexes [1] did it give?
A: 95%

Q: And the Kd [2]?
A: 0.169 nM

Q: What about the Kd [3] of the same molecule?
A: 0.0801 nM

Q: And the Kd [4]?
A: 0.149 nM

Q: And the Kd [5]?
A: 0.175 nM

Q: And the Kd [6]?
A: 0.0997 nM

Q: What about the Kd [7] of the same molecule?
A: 0.174 nM

Q: And the Kd [8]?
A: 0.0932 nM

Q: And the Kd [9]?
A: 0.0913 nM

Q: And the Kd [10]?
A: 0.0989 nM

Q: What about the Kd [11] of the same molecule?
A: 0.152 nM

Q: What about the Kd [12] of the same molecule?
A: 0.475 nM

Q: What about the Kd [13] of the same molecule?
A: 0.89 nM

Q: And the Kd [14]?
A: 0.879 nM

Q: What about the Kd [15] of the same molecule?
A: 0.663 nM

Q: What about the Kd [16] of the same molecule?
A: 0.927 nM

Q: And the Kd [17]?
A: 1.12 nM

Q: And the Kd [18]?
A: 2.02 nM

Q: What about the Kd [19] of the same molecule?
A: 0.679 nM

Q: And the Kd [20]?
A: 0.687 nM

Q: What about the Kd [21] of the same molecule?
A: 0.992 nM

Q: And the Kd [22]?
A: 0.992 nM

Q: What about the Kd [23] of the same molecule?
A: 0.49 nM

Q: What about the Kd [24] of the same molecule?
A: 0.743 nM

Q: And the Kd [25]?
A: 0.654 nM

Q: What about the Kd [26] of the same molecule?
A: 0.46 nM

Q: And the Kd [27]?
A: 0.0931 nM

Q: What about the Kd [28] of the same molecule?
A: 0.318 nM

Q: What about the Kd [29] of the same molecule?
A: 0.311 nM

Q: And the Kd [30]?
A: 0.136 nM

Q: What about the Kd [31] of the same molecule?
A: 0.119 nM

Q: And the Kd [32]?
A: 0.0468 nM

Q: What about the Kd [33] of the same molecule?
A: 0.0358 nM

Q: And the Kd [34]?
A: 0.74 nM

B1: Monovalent one-armed Ab (OAA) with the affinity-improved anti-HER2-ECD2 Fab (antibody, V domains shown)
VH: EVQLVESGGGLVQPGGSLRLSCAASGFTFADYTMDWVRQAPGKGLEWVGDVNPNSGGSIYNQRFKGRFTFSVDRSKNTLYLQMNSLRAEDTAVYYCARNLGPSFYFDYWGQGTLVTVSS
VL: DIQMTQSPSSLSASVGDRVTITCKASQDVSIGVAWYQQKPGKAPKLLIYSASYRYTGVPSRFSGSGSGTDFTLTISSLQPEDFATYYCQQYYIYPATFGQGTKVEIK
notes: as the light chain of m3; also called one variant; copies: + +
Q: Which Kd [35] does the source give for B1 here?
A: 1.7 nM
